Results from patent publication US10472652B2, “Chemical engineering processes and apparatus for the synthesis of compounds” (TEEWINOT T[…], priority 2013, dated 2019).

Assays:
Assay type in all cases: biochemical
THCA synthase [1] = molecular target: T1, THCA synthase (Cannabis sativa, UniProt Q8GTB6); assay: effect of concentration of non-aqueous solvent (DMSO) on THCA synthase catalytic rate and THCA:CBCA product ratio
T1 construct: His-tag (C); made in house; host or cells: Pichia pastoris (PichiaPink, pPink-HC vector), secreted into the medium; cell-free T3 supernatant used
T1 sequence (Q8GTB6 29-545): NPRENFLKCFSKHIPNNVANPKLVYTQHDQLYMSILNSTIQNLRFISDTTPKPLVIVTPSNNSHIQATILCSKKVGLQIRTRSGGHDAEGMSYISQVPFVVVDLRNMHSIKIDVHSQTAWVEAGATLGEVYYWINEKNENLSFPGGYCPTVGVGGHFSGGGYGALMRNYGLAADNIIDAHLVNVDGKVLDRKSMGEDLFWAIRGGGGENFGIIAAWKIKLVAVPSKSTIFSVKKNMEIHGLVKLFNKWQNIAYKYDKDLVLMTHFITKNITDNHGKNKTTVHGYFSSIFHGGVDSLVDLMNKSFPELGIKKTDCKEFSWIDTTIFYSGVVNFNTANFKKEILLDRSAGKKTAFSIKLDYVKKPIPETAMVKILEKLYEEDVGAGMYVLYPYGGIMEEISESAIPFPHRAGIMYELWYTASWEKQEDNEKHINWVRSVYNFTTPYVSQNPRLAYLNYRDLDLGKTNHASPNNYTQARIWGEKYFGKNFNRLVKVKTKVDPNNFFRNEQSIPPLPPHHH
Method: Accordingly, the effects of temperature, pH, solvent, ionic strength and incubation times on the distribution ratio of THCA to CBCA products were studied. In one embodiment, the effect of solvent on product distribution ratio was evaluated. Cannabinoids are lipohilic in nature and are poorly solubilized in aqueous solvents. The poor solubility of cannabinoids in aqueous solvent has prevented the development of ex-vivo enzyme catalyzed methodologies for the synthesis of cannabinoids and cannabinoid analogs.
The catalytic rate […] slightly as concentration of the non-aqueous solvent is increased. Thus, 20% DMSO gave the highest catalytic rate, approximately 2.5-fold faster than catalysis in buffer alone. Table 1 illustrates the effect of concentration of non-aqueous solvent on the rate of catalytic activity.
As further illustrated in this table, the concentration of non-aqueous solvent can alter the ratio of THCA to CBCA produced as product. Thus, greater levels of THCA are obtained when the concentration of DMSO in buffer is less that 20%, with a THCA:CBCA distribution ratio of 10:1 observed when 10% DMSO is used as the solvent.

THCA synthase [2] = molecular target: T1, THCA synthase; assay: pH study: ratio of THCA to CBCA produced when THCA synthase is contacted with CBGA
Method: Table 3 illustrates the results of a pH study that was aimed at identifying the effect of pH on product ratio, namely, the ratio of THCA to CBCA compounds produced when THCA synthase is contacted with CBGA as substrate. The pH of the reaction mixture in this study ranged from a pH of 4.0 to 8.0.
In fact, THCA is the major product when catalysis is carried out at a pH of 4.0. Increasing the pH of the reaction mixture altered the product distribution ratio with approximately 30% CBCA being produced as product at a pH of 5.0 and around […] CBCA being produced as product at a pH value of 6.0. A further increase in pH of the reaction mixture, such as an increase of the pH of the reaction mixture to a pH of 7.0 gave CBCA exclusively as the product of THCA synthase catalyzed conversion of CBGA. Any further increases in pH, moreover, reduced or eliminated catalytic activity of THCA synthase, with no product observed for a reaction mixture at a pH of 8.0.

THCA synthase [3] = molecular target: T1, THCA synthase; assay: effect of detergent SDS on THCA synthase conversion of CBGA; settings: SDS added to 100 mM citrate buffer containing cyclodextrin
Method: In contrast, addition of SDS to 100 mM citrate buffer containing cyclodextrin destroyed THCA synthases ability to catalyze reaction. Only 8% of the substrate was converted to product under these reaction conditions with the formation of THCA being favored as product under these reaction conditions.

THCA synthase [4] = molecular target: T1, THCA synthase; assay: catalytic activity of THCA synthase from independent colonies of transformed pPink yeast cells (conversion of CBGA to THCA); settings: 25 μl cell free supernatant of T3 sample, 100 mM citrate buffer, 10% DMSO, final pH 5.0, 2 hours at 30° C.
Method: After 24 hours a 100 μL of the cell sample was removed to which was added 100 μL of 40% methanol to induce enzyme production. This methanolic sample was then centrifuged at 12,000 rpm for 5 minutes and the supernatant and pellet were saved as the T1 sample. A second culture sample was obtained after a 48 hour incubation period and treated with methanol as described above. After centrifugation, the supernatant and pellet are saved as the T2 sample. At 72 hours the entire incubation mixture is treated with an appropriate volume of 40% methanol. The supernatant and pellet obtained from methanolic treatment of the culture after a 72 hour incubation period is labeled as T3. The T3 supernatant was spun through an Amicon 30 kD protein filter and analyzed for protein using an SDS-PAGE gel.
The catalytic activity of THCA synthase was measured by incubating 25 μl of the cell free supernatant from a T3 sample with 25 μl of a 1 mg/ml CBGA stock in 200 μl of a 100 mM citrate buffer at pH 4.8 having 10% DMSO for 2 hours at 30° C. The final concentration of CBGA in the reaction mixture was 0.1 mg/ml and the final pH is 5.0. Table 4 illustrates the data related to the catalytic activity of THCA synthase obtained from independent colonies of transformed pPink yeast cells, namely. pPink yeast cells that were transformed using linearized THCA synthase plasmids. Culture samples that converted greater than 20% of the substrate CBGA to product THCA were selected for scale up.

B1: THCA synthase: recombinant His-tagged tetrahydrocannabinolic acid synthase secreted by transformed Pichia pastoris yeast cells (protein, UniProt Q8GTB6 29-545, looked up)
Tetrahydrocannabinolic acid …: T1 sequence (Q8GTB6 29-545)
modifications: His tag
notes: recombinant His-tagged tetrahydrocannabinolic acid synthase secreted by transformed Pichia pastoris yeast cells
**Q.** How did the “FASTER (catalytic rate relative to buffer alone)” value (THCA synthase [1]; DMSO 0%) turn out when B1 was run?
**A.** 1X

**Q.** And the “FASTER (catalytic rate relative to buffer alone)” value (THCA synthase [1]; DMSO 10%)?
**A.** 1.2X

**Q.** What about the “FASTER (catalytic rate relative to buffer alone)” value (THCA synthase [1]; DMSO 30%) of the same molecule?
**A.** 0.3X

**Q.** What about the “CBCA (share of product)” value (THCA synthase [2]; pH 4, substrate CBGA) of the same molecule?
**A.** Trace

**Q.** What about the “THCA (share of product)” value (THCA synthase [2]; pH 4, substrate CBGA) of the same molecule?
**A.** 100%

**Q.** And the “THCA (share of product)” value (THCA synthase [2]; pH 5, substrate CBGA)?
**A.** 70%

**Q.** What about the “THCA (share of product)” value (THCA synthase [2]; pH 6, substrate CBGA) of the same molecule?
**A.** 85%

**Q.** And the “CBCA (share of product)” value (THCA synthase [2]; pH 7, substrate CBGA)?
**A.** 100%

**Q.** What about the “THCA (share of product)” value (THCA synthase [2]; pH 7, substrate CBGA) of the same molecule?
**A.** 0%

**Q.** And the “CBCA (share of product)” value (THCA synthase [2]; pH 8, substrate CBGA)?
**A.** 0%

**Q.** What about the “THCA (share of product)” value (THCA synthase [2]; pH 8, substrate CBGA) of the same molecule?
**A.** 0%

**Q.** What about the “substrate converted to product” value (THCA synthase [3]) of the same molecule?
**A.** 8%

B2: Spe THC #22: cell free supernatant with THCA synthase from a pPink yeast colony transformed with Spe I linearized THCA synthase plasmid (protein, UniProt Q8GTB6 29-545, looked up)
Tetrahydrocannabinolic acid …: T1 sequence (Q8GTB6 29-545)
modifications: yeast culture supernatant
notes: cell free supernatant with THCA synthase from a pPink yeast colony transformed with Spe I linearized THCA synthase plasmid
**Q.** For B2, which “% Conversion of CBGA to THCA in reaction containing 0.1 mg/ml CBGA.” value (from here on “% Conversion of CBGA to THCA”) (THCA synthase [4]) is on record?
**A.** 20.6%

B3: Pme THC(2) #51: cell free supernatant with THCA synthase from a pPink yeast colony transformed with Pme I linearized THCA synthase plasmid (protein, UniProt Q8GTB6 29-545, looked up)
Tetrahydrocannabinolic acid …: T1 sequence (Q8GTB6 29-545)
modifications: yeast culture supernatant
notes: cell free supernatant with THCA synthase from a pPink yeast colony transformed with Pme I linearized THCA synthase plasmid
**Q.** With B3 as the molecule, how does the “% Conversion of CBGA to THCA” value (THCA synthase [4]) read?
**A.** 26.8%

B4: Pme THC(3) #17: cell free supernatant with THCA synthase from a pPink yeast colony transformed with Pme I linearized THCA synthase plasmid (protein, UniProt Q8GTB6 29-545, looked up)
Tetrahydrocannabinolic acid …: T1 sequence (Q8GTB6 29-545)
modifications: yeast culture supernatant
notes: as for B3
**Q.** B4 was tested. Which “% Conversion of CBGA to THCA” value (THCA synthase [4]) did it give?
**A.** 69.9%

B5: Spe THC #4: cell free supernatant with THCA synthase from a pPink yeast colony transformed with Spe I linearized THCA synthase plasmid (protein, UniProt Q8GTB6 29-545, looked up)
Tetrahydrocannabinolic acid …: T1 sequence (Q8GTB6 29-545)
modifications: yeast culture supernatant
notes: as for B2
**Q.** Which “% Conversion of CBGA to THCA” value (THCA synthase [4]) does the source give for B5 here?
**A.** 28.7%

B6: Pme THC(3) #11: cell free supernatant with THCA synthase from a pPink yeast colony transformed with Pme I linearized THCA synthase plasmid (protein, UniProt Q8GTB6 29-545, looked up)
Tetrahydrocannabinolic acid …: T1 sequence (Q8GTB6 29-545)
modifications: yeast culture supernatant
notes: as for B3
**Q.** For B6, which “% Conversion of CBGA to THCA” value (THCA synthase [4]) is on record?
**A.** 35.0%

B7: Spe THC #23: cell free supernatant with THCA synthase from a pPink yeast colony transformed with Spe I linearized THCA synthase plasmid (protein, UniProt Q8GTB6 29-545, looked up)
Tetrahydrocannabinolic acid …: T1 sequence (Q8GTB6 29-545)
modifications: yeast culture supernatant
notes: as for B2
**Q.** With B7 as the molecule, how does the “% Conversion of CBGA to THCA” value (THCA synthase [4]) read?
**A.** 18.7%

B8: Pme THC(3) #1: cell free supernatant with THCA synthase from a pPink yeast colony transformed with Pme I linearized THCA synthase plasmid (protein, UniProt Q8GTB6 29-545, looked up)
Tetrahydrocannabinolic acid …: T1 sequence (Q8GTB6 29-545)
modifications: yeast culture supernatant
notes: as for B3
**Q.** Which “% Conversion of CBGA to THCA” value (THCA synthase [4]) does the source give for B8 here?
**A.** 55.2%

B9: Pme THC(2) #46: cell free supernatant with THCA synthase from a pPink yeast colony transformed with Pme I linearized THCA synthase plasmid (protein, UniProt Q8GTB6 29-545, looked up)
Tetrahydrocannabinolic acid …: T1 sequence (Q8GTB6 29-545)
modifications: yeast culture supernatant
notes: as for B3
**Q.** B9 was tested. Which “% Conversion of CBGA to THCA” value (THCA synthase [4]) did it give?
**A.** 40.7%

B10: Spe THC #3: cell free supernatant with THCA synthase from a pPink yeast colony transformed with Spe I linearized THCA synthase plasmid (protein, UniProt Q8GTB6 29-545, looked up)
Tetrahydrocannabinolic acid …: T1 sequence (Q8GTB6 29-545)
modifications: yeast culture supernatant
notes: as for B2
**Q.** B10 was tested. Which “% Conversion of CBGA to THCA” value (THCA synthase [4]) did it give?
**A.** 20.6%

B11: Pme THC(3) #20: cell free supernatant with THCA synthase from a pPink yeast colony transformed with Pme I linearized THCA synthase plasmid (protein, UniProt Q8GTB6 29-545, looked up)
Tetrahydrocannabinolic acid …: T1 sequence (Q8GTB6 29-545)
modifications: yeast culture supernatant
notes: as for B3
**Q.** How did the “% Conversion of CBGA to THCA” value (THCA synthase [4]) turn out when B11 was run?
**A.** 34.3%

B12: Pme THC(3) #19: cell free supernatant with THCA synthase from a pPink yeast colony transformed with Pme I linearized THCA synthase plasmid (protein, UniProt Q8GTB6 29-545, looked up)
Tetrahydrocannabinolic acid …: T1 sequence (Q8GTB6 29-545)
modifications: yeast culture supernatant
notes: as for B3
**Q.** Which “% Conversion of CBGA to THCA” value (THCA synthase [4]) does the source give for B12 here?
**A.** 36.8%
